Assay results as given in the supplement of paper PMC7877785.
± gives the uncertainty stated by the source.

Assay: self-splicing fitness, log relative to wild type (ln ratio); higher = more splicing; Tetrahymena group I intron in knt gene, E. coli kanamycin selection, DiMSum; sequences stand for … in CUCUCU…GGAGGGAAAAGUUAUCAGGCAUGCACCUGGUAGCUAGUCUUUAAACCAAUAGAUUGCAUCGGUUUAAAAGGCAAGACCGUCAAAUUGCGGGAAAGGGGUCAACAGCCGUUCAGUACCAAGUCUCAGGGGAAACUUUGAGAUGGCCUUGCAAAGGGUAUGGUAAUAAGCUGACGGACAUGGUCCUAACCACGCAGCCAAGUCCUAAGUCAACAGAUCUUCUGUUGAUAUGGAUGCAGUUCACAGACUAAAUGUCGGUCGGGGAAGAUGUAUUCUUCUCAUAAGAUAUAGUCGGACCUCUCCUUAAUGGGAGCUAGCGGAUGAAGUGAUGCAACACUGGAGCCGCUGGGAACUAAUUUGUAUGCGAAAGUAUAUUGAUUAGUUUUGGAGUACUCGUGGUCG
Method in brief: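 Colonies from six replicate transformations of E. coli BL21(DE3) were pooled and amplicon-sequenced on an Illumina HiSeq 2500. The library placed an intron with all eight P1ex-region nucleotides randomised inside the knt kanamycin-resistance gene on pET-22b(+), and cells grew overnight at 37°C or 30°C on LB agar with or without 25 μg/mL kanamycin (plus 100 μg/mL carbenicillin, 50 μM IPTG, 0.2% rhamnose). Fitness is the DiMSum error-weighted combination of wild-type-normalised replicate fold changes, kanamycin versus none.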

Sequence	self-splicing fitness (ln) (37 °C)	self-splicing fitness (ln) (30 °C)
CGUGAGCAAUAUUACGAGAC	-0.958 ± 0.35	–
CGUGAGCAAUAUUACGAGAG	-2.64 ± 0.36	-2.29 ± 0.25
CGUGAGCAAUAUUACGAGCA	-0.55 ± 0.11	-1.58 ± 0.085
CGUGAGCAAUAUUACGAGGU	-1.35 ± 0.31	-0.426 ± 0.29
CGUGAGCAAUAUUACGAUUC	-2.58 ± 0.44	-3.25 ± 0.23
CGUGAGCAAUAUUACGAUUG	-0.662 ± 0.13	-0.949 ± 0.09
CGUGAGCAAUAUUACGCAAC	-2.18 ± 0.33	-2.77 ± 0.36
CGUGAGCAAUAUUACGCCCU	-1.98 ± 0.24	-3.26 ± 0.23
CGUGAGCAAUAUUACGCCUC	-1.07 ± 0.4	-2.12 ± 0.31
CGUGAGCAAUAUUACGCCUG	-0.852 ± 0.36	-1.76 ± 0.26
CGUGAGCAAUAUUACGCUAA	-1.26 ± 0.48	–
CGUGAGCAAUAUUACGGAGU	-1.14 ± 0.4	-3.12 ± 0.23
CGUGAGCAAUAUUACGGCAU	-2.28 ± 0.16	-2.59 ± 0.11
CGUGAGCAAUAUUACGGCUC	-1.23 ± 0.27	-3.79 ± 0.42
CGUGAGCAAUAUUACGGGGC	-2.03 ± 0.2	-3.54 ± 0.28
CGUGAGCAAUAUUACGGUCA	-2.12 ± 0.16	-3.84 ± 0.25
CGUGAGCAAUAUUACGGUUU	-3.28 ± 0.22	-3.81 ± 0.18
CGUGAGCAAUAUUACGUAGC	-1.28 ± 0.35	-1.15 ± 0.34
CGUGAGCAAUAUUACGUUAU	-2.38 ± 0.18	-4.44 ± 0.36
CGUUAGCAAUAUUACGAAGU	-1.29 ± 0.3	-2.41 ± 0.34
CGUUAGCAAUAUUACGAGCU	-0.739 ± 0.082	-1.25 ± 0.064
CGUUAGCAAUAUUACGAGUG	0.184 ± 0.094	-1.18 ± 0.078
CGUUAGCAAUAUUACGAGUU	-2.27 ± 0.45	-2.98 ± 0.36
CGUUAGCAAUAUUACGAUUC	-1.68 ± 0.18	-3.09 ± 0.19
CGUUAGCAAUAUUACGAUUU	-1.66 ± 0.25	-2.51 ± 0.27

Sequence	self-splicing fitness (ln) (37 °C)	self-splicing fitness (ln) (30 °C)
CGUUAGCAAUAUUACGCACC	-1.79 ± 0.48	-1.94 ± 0.35
CGUUAGCAAUAUUACGCACG	–	-1.99 ± 0.31
CGUUAGCAAUAUUACGCCCA	0.14 ± 0.18	-1.43 ± 0.16
CGUUAGCAAUAUUACGCCGU	-0.993 ± 0.44	–
CGUUAGCAAUAUUACGCGAU	-3.12 ± 0.32	-2.89 ± 0.16
CGUUAGCAAUAUUACGCUAA	0.0733 ± 0.29	–
CGUUAGCAAUAUUACGGAAA	-2.11 ± 0.31	-1.93 ± 0.38
CGUUAGCAAUAUUACGGACU	0.16 ± 0.11	-0.292 ± 0.08
CGUUAGCAAUAUUACGGCAU	-1.13 ± 0.12	-2.01 ± 0.11
CGUUAGCAAUAUUACGGCUC	0.277 ± 0.22	-1.75 ± 0.33
CGUUAGCAAUAUUACGGGAA	-2.36 ± 0.28	-2.14 ± 0.17
CGUUAGCAAUAUUACGUGCA	-0.0413 ± 0.11	-1.38 ± 0.11
CGUUAGCAAUAUUACGUGGG	-1.79 ± 0.16	-1.39 ± 0.12
CGUUAGCAAUAUUACGUUAA	-3.24 ± 0.28	-3.44 ± 0.23
CGUUAGCAAUAUUACGUUAU	-2.18 ± 0.37	-2.76 ± 0.34
CUAAAGCAAUAUUACGAAAU	-2.01 ± 0.46	-3.55 ± 0.28
CUAAAGCAAUAUUACGAGCG	0.289 ± 0.073	0.136 ± 0.057
CUAAAGCAAUAUUACGAGCU	-2.82 ± 0.38	-4.12 ± 0.26
CUAAAGCAAUAUUACGAUUG	-0.596 ± 0.06	-0.545 ± 0.053
CUAAAGCAAUAUUACGCCCG	-0.0373 ± 0.12	0.465 ± 0.11
CUAAAGCAAUAUUACGCCGA	-2.42 ± 0.25	-3.46 ± 0.24
CUAAAGCAAUAUUACGCCUA	–	-3.27 ± 0.23
CUAAAGCAAUAUUACGCGUU	-2.67 ± 0.27	-3.08 ± 0.13
CUAAAGCAAUAUUACGCUCU	–	-2.94 ± 0.41
CUAAAGCAAUAUUACGGAGA	-2.79 ± 0.29	-2.83 ± 0.16

Sequence	self-splicing fitness (ln) (37 °C)	self-splicing fitness (ln) (30 °C)
CUAAAGCAAUAUUACGGCCA	-2.08 ± 0.4	-3.21 ± 0.31
CUAAAGCAAUAUUACGGCCG	0.575 ± 0.21	0.821 ± 0.14
CUAAAGCAAUAUUACGGCUG	-0.0492 ± 0.089	0.0357 ± 0.069
CUAAAGCAAUAUUACGUACC	-2.03 ± 0.46	–
CUAAAGCAAUAUUACGUCGG	-0.189 ± 0.078	-0.261 ± 0.061
CUAAAGCAAUAUUACGUCUA	-2.2 ± 0.22	-4.21 ± 0.27
CUAAAGCAAUAUUACGUGUG	0.387 ± 0.06	-0.323 ± 0.049
CUAAAGCAAUAUUACGUUCU	-3.07 ± 0.26	-4.08 ± 0.24
CUACAGCAAUAUUACGAAGC	-2.85 ± 0.25	-3.61 ± 0.24
CUACAGCAAUAUUACGAAGG	-1.49 ± 0.14	-1.22 ± 0.1
CUACAGCAAUAUUACGAAGU	-2.52 ± 0.19	-4.24 ± 0.29
CUACAGCAAUAUUACGAAUC	-2.61 ± 0.23	-4.32 ± 0.23
CUACAGCAAUAUUACGACGU	-3.03 ± 0.2	-4.63 ± 0.23
CUACAGCAAUAUUACGAGGG	-2.59 ± 0.2	-3.38 ± 0.19
CUACAGCAAUAUUACGAUGC	-2.81 ± 0.2	-3.88 ± 0.39
CUACAGCAAUAUUACGCAGU	-2.32 ± 0.22	-3.78 ± 0.24
CUACAGCAAUAUUACGCCUU	-1.4 ± 0.31	-2.27 ± 0.2
CUACAGCAAUAUUACGCGAG	-1.74 ± 0.1	-2.9 ± 0.098
CUACAGCAAUAUUACGCGCA	-2.12 ± 0.19	-3.72 ± 0.22
CUACAGCAAUAUUACGCGGC	-0.807 ± 0.14	-2.27 ± 0.15
CUACAGCAAUAUUACGCUCG	-1.46 ± 0.13	-1.49 ± 0.089
CUACAGCAAUAUUACGGAGG	-1.33 ± 0.11	-2.21 ± 0.087
CUACAGCAAUAUUACGGAUU	-2.5 ± 0.21	-3.46 ± 0.14
CUACAGCAAUAUUACGGCUG	-2.57 ± 0.22	-3.92 ± 0.18
CUACAGCAAUAUUACGGGAU	-2.99 ± 0.27	-2.74 ± 0.15

Sequence	self-splicing fitness (ln) (37 °C)	self-splicing fitness (ln) (30 °C)
CUACAGCAAUAUUACGGGCG	-0.108 ± 0.092	-1.2 ± 0.065
CUACAGCAAUAUUACGGUGC	-2 ± 0.17	-4.58 ± 0.28
CUACAGCAAUAUUACGGUGU	-2.49 ± 0.14	-3.23 ± 0.13
CUACAGCAAUAUUACGUACA	-1.29 ± 0.2	-1.78 ± 0.17
CUACAGCAAUAUUACGUCCU	-2.38 ± 0.17	-3.25 ± 0.18
CUACAGCAAUAUUACGUCUG	-1.45 ± 0.13	-1.77 ± 0.1
CUACAGCAAUAUUACGUUCA	-0.865 ± 0.098	-2.98 ± 0.19
CUACAGCAAUAUUACGUUGC	-2.82 ± 0.21	-3.67 ± 0.23
CUAGAGCAAUAUUACGAAUG	0.533 ± 0.11	0.298 ± 0.095
CUAGAGCAAUAUUACGACCU	-2.99 ± 0.33	-3.67 ± 0.27
CUAGAGCAAUAUUACGAGUA	-1.17 ± 0.17	-3.71 ± 0.23
CUAGAGCAAUAUUACGAUAU	-2.09 ± 0.25	-3.18 ± 0.27
CUAGAGCAAUAUUACGAUGA	-1.12 ± 0.22	-1.86 ± 0.14
CUAGAGCAAUAUUACGAUUG	-0.493 ± 0.077	-0.464 ± 0.071
CUAGAGCAAUAUUACGCACU	-1.99 ± 0.41	-4.52 ± 0.46
CUAGAGCAAUAUUACGCCGG	-0.534 ± 0.29	–
CUAGAGCAAUAUUACGCGCA	-1.21 ± 0.35	-1.95 ± 0.33
CUAGAGCAAUAUUACGCGUA	-2.97 ± 0.26	-3.78 ± 0.2
CUAGAGCAAUAUUACGCUGA	-2.25 ± 0.23	-3.92 ± 0.23
CUAGAGCAAUAUUACGGAAU	-2.82 ± 0.38	-3.15 ± 0.27
CUAGAGCAAUAUUACGGCAA	-2.96 ± 0.34	-3.09 ± 0.22
CUAGAGCAAUAUUACGGCUC	–	-2.94 ± 0.25
CUAGAGCAAUAUUACGGGGC	-2.31 ± 0.3	-3.9 ± 0.33
